We go through two proteins from PMC3893532.

The nature of this series: confocal immunofluorescence, transfected hippocampal neurons. To be noted: glycan lost; control: wild-type seipin.

B1: seipin: N88S (protein)
parent chain: MVNDPPVPALLWAQEVGQVLAGRARRLLLQFGVLFCTILLLLWVSVFLYGSFYYSYMPTVSHLSPVHFYYRTDCDSSTTSLCSFPVANVSLTKGGRDRVLMYGQPYRVTLELELPESPVNQDLGMFLVTISCYTRGGRIISTSSRSVMLHYRSDLLQMLDTLVFSSLLLFGFAEQKQLLEVELYADYRENSYVPTTGAIIEIHSKRIQLYGAYLRIHAHFTGLRYLLYNFPMTCAFIGVASNFTFLSVIVLFSYMQWVWGGIWPRHRFSLQVNIRKRDNSRKEVQRRISAHQPGPEGQEESTPQSDVTEDGESPEDPSGTEGQLSEEEKPDQQPLSGEEELEPEASDGSGSWEDAALLTEANLPAPAPASASAPVLETLGSSEPAGGALRQRPTCSSS
Turning to B1, the localisation_or_trafficking result is “changes”.

B2: seipin: S90L (protein)
parent chain: MVNDPPVPALLWAQEVGQVLAGRARRLLLQFGVLFCTILLLLWVSVFLYGSFYYSYMPTVSHLSPVHFYYRTDCDSSTTSLCSFPVANVSLTKGGRDRVLMYGQPYRVTLELELPESPVNQDLGMFLVTISCYTRGGRIISTSSRSVMLHYRSDLLQMLDTLVFSSLLLFGFAEQKQLLEVELYADYRENSYVPTTGAIIEIHSKRIQLYGAYLRIHAHFTGLRYLLYNFPMTCAFIGVASNFTFLSVIVLFSYMQWVWGGIWPRHRFSLQVNIRKRDNSRKEVQRRISAHQPGPEGQEESTPQSDVTEDGESPEDPSGTEGQLSEEEKPDQQPLSGEEELEPEASDGSGSWEDAALLTEANLPAPAPASASAPVLETLGSSEPAGGALRQRPTCSSS
For the protein B2, the localisation_or_trafficking result is “changes”.
